For the series, the target named is human alpha-thrombin (human, UniProt P00734;P00734 328-363;364-622). Description: ITC. Background: ITC needs no label: the signal is the heat of the interaction.

We go through one molecule from publication PMC9297526.

As for GGTTGGTGTGGTTGG (structured_DNA) [TBA], the Ka stood at 8.46e+06 M⁻¹.
